Measured values published in patent US12012446B2, “Epstein-Barr virus antibodies and uses thereof” (priority 2017, dated 2024).

What was measured:
[1] = molecular target: T1, purified EBV gp350/220 (recombinant EBV gp350 ectodomain) (Epstein-Barr virus, UniProt P03200); assay: Indirect ELISA on recombinant EBV gp350 ectodomain; type: binding; settings: for ELISA binding to purified EBV gp350/220: purified antibodies 10 μg/ml; for ELISA binding strength to gp350, compared with m72A1 / parental antibody: soluble gp350 0.5 μg/ml
T1 construct: purified EBV gp350 ectodomain protein (AA 4-863); purchased Immune Technology Corporation
Experimental: Briefly, immunoplates (Costar 3590; Corning Incorporated) were coated with 50 μl of 0.5 μg/ml recombinant EBV gp350 ectodomain (Immune Technology Corporation) diluted in 1× phosphate buffered saline (PBS, pH 7.4) and incubated overnight at 4° C. After washing three times with 1×PBS containing 0.05% (v/v) Tween 20 (washing buffer), plates were blocked with 100 μl washing buffer containing 2% (w/v) bovine serum albumin (BSA) (blocking buffer) then incubated for 1 h at room temperature and washed as above. 100 μl of hybridoma supernatant or 50 μl of 10 μg/ml purified mAbs was added to each well (in triplicate) and incubated for 2 h at room temperature. […] The plates were washed as described above, followed by incubation with 50 μl of goat anti-mouse IgG HRP-conjugated secondary antibody (1:2,000 diluted in 1×PBS) at room temperature for 1 h. The plates were washed again and 100 μl of chromogenic substrate 2,2′-azino-bis (3-ethylbenzothiazoline-6-sulphonic acid) (ABTS, Life Science Technologies) was added. The reaction was stopped using 100 μl of ABTS peroxidase stop solution containing 5% sodium dodecyl sulfate (SDS) in water. The absorbance was read at an optical density of 405 nm using an ELISA reader (Molecular Devices). All experiments were performed in triplicate and confirmed in three independent experiments.
ELISA binding of anti-gp350 and anti-gH/gL to soluble gp350 and gH/gL proteins was performed. Soluble EBV gp350 and gH/gL proteins were used as the target antigen at 0.5 μg/ml. 1× phosphate buffered saline (PBS) was used as negative (not shown) control. Bound antibodies were detected using HRP-conjugated anti-mouse or anti-human IgG (1:2,000).

[2] = tested on: EBV-eGFP infection of Raji cells; assay: EBV neutralization assay in Raji cells; type: cell-based, Epstein-Barr virus; settings: for neutralization of EBV in Raji cells (in words): spin-column purified mAbs, 12.5, 25, 50 and 100 μg/ml
Experimental: EBV neutralization assay was performed in Raji cells as previously described (47). Briefly, purified individual anti-gp350 mAbs were incubated with purified AGS-EBV-eGFP (titer calculated to infect at least 8% of HEK293 cells seeded in 100 μl of serum-free DMEM) for 2 hours at 37° C. To represent EBV infection of B cells, the pre-incubated anti-gp350 mAbs/AGS-EBV-eGFP were used to infect 5×10^5 Raji cells seeded in a 96-well plate for 2 hours at 37° C. Neutralizing 72A1 and non-neutralizing 2L10 anti-gp350 mAbs served as positive and negative controls, respectively. Infected cells were washed three times with PBS to remove any unbound viruses and antibodies. Washed, infected cells were incubated in 96-well plates at 37° C. for 48 hours post-infection and the number of eGFP+ (infected) cells was determined using flow cytometry. All dilutions were performed in quintuplicate and the assays were repeated three times. Antibody EBV neutralization activity was calculated as: % neutralization=(EBValone−EBVmAb)/(EBValone)×100.
However, this antibody was recently reported to be a mixture of both functional and non-functional antibodies (50). […] The percentage of eGFP+ cells (percent infection) was determined using flow cytometry as described (47). The nAbs 72A1 and E1D1 were used as positive controls, whereas the anti-gp350 non-neutralizing mAb 2L10 and KSHV gH/gL mAb 54A1 were used as negative controls. Because HB4, HB13, HB15, HB16, HB19, HB21, and HB23 were confirmed to be polyclonal based on isotyping and/or sequence data, they were eliminated from further consideration in the neutralization assay. HB18 was not used in neutralization experiments because it was identical to HB8.
The purified eGFP-tagged-EBV was titered in Raji cells to determine percent EBV infection using a range of volumes (50-250 μl) (FIG. 5A). Then initial neutralization of EBV was conducted in Raji cells using purified mAbs at various concentrations (12.5, 25, 50, and 100 μg/ml).
EBV-eGFP+ cells were enumerated using flow cytometry.

[3] = molecular target: T2, EBV gp350 stably expressed on CHO cells (Epstein-Barr virus, UniProt P03200); assay: Epitope mapping by competitive cell binding assay with biotinylated mAbs
T2 construct: stably co-transfected with full-length pCAGGS-gp350/220 and pCI-puro vector; expressed in transfected cells; host or cells: CHO cells
Experimental: To evaluate conformation epitope mapping of the selected mAbs, competitive binding assays were conducted using biotinylated mAbs. A one-step antibody biotinylation kit (MACS Miltenyi Biotec) was used to biotinylate the mAbs. Approximately 1×10^5 CHO cells that stably expressed EBV gp350 were incubated for 2 hours with serially diluted ([…]) unlabeled competitor mAbs and non-specific anti-KSHV gH/gL 54A1 mAb. After being washed with PBS, the cells were incubated for 2 hours in the presence of 1 μg/ml biotinylated mAbs. To determine maximum binding, cells in which the biotinylated mAb was added in the absence of unlabeled mAbs were included in the assay. Cells were washed with PBS, followed by incubation for 1 hour with anti-biotin AF488 at a dilution of 1:500. After the final wash in PBS, cells were resuspended in 1% paraformaldehyde and analyzed by flow cytometry as described above. Percentage of inhibition was calculated as: 100−[(% fluorescent cells with competitor mAb/% fluorescent cells without competitor mAb)×100]. The complete prevention of binding of a biotinylated mAb by its unlabeled counterpart was used as a validation of the assay, as previously described (84).
At least seven unique CD21 binding epitopes on EBV gp350 have been predicted (Table 3).

T1 sequence (P03200 4-863): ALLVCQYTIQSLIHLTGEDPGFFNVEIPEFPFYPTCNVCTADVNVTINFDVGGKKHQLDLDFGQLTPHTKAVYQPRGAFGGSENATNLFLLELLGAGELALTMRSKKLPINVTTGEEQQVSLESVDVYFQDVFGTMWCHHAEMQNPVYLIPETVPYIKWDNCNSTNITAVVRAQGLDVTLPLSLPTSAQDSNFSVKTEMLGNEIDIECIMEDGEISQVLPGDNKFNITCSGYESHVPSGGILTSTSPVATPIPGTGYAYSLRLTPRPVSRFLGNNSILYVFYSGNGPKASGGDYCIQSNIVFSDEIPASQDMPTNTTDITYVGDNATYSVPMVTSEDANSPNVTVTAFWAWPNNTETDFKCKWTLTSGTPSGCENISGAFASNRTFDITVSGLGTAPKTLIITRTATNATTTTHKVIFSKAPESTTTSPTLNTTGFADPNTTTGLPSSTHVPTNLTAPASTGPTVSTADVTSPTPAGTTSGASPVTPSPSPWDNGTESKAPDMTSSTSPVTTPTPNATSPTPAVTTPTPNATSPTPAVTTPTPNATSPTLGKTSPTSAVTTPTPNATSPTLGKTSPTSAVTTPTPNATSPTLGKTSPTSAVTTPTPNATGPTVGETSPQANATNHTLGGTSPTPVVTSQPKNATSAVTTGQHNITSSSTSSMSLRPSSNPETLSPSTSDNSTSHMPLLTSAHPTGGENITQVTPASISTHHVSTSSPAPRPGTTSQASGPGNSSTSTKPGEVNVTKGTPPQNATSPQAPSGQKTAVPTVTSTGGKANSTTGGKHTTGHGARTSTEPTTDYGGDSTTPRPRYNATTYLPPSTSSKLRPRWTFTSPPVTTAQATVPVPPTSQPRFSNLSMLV
T2 sequence (P03200 whole entry): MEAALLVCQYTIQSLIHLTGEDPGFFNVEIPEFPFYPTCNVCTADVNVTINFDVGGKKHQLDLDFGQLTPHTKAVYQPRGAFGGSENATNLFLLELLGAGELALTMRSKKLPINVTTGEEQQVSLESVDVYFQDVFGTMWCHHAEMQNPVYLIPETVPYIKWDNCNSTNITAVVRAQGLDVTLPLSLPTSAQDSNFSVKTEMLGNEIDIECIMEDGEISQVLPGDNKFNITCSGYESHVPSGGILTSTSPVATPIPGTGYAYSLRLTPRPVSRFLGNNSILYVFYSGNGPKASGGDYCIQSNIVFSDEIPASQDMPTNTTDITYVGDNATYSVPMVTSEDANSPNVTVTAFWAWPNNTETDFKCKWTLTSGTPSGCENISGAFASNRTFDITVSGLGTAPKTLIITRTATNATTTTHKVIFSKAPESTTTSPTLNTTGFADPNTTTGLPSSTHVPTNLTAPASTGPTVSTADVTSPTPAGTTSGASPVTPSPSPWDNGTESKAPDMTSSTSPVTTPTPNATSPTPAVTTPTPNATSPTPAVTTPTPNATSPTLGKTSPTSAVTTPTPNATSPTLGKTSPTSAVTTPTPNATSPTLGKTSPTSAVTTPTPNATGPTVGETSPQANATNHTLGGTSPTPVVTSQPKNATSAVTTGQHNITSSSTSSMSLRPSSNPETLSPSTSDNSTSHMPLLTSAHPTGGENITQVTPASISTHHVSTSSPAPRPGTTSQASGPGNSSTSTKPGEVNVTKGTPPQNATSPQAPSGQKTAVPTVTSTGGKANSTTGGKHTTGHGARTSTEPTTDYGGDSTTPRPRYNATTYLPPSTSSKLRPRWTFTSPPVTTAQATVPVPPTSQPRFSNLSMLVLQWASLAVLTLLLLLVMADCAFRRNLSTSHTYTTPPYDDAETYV

B1: HB14: murine anti-EBV gp350 mAb, IgG1 κ; SEQ ID NO: 124 / 125 (antibody, V domains shown)
VH: SGAELVRPGASVNLSCKALGYTFTDYEMHWVKQTPVYGLEWIGTIHPRRGGTAYNQRFKGKAALTADKSSSTAYMELSSLTSEDSAVYYCARYGYPWYFDVWGAGTTVTVSS
VL: LSLPVSLGDQASISCRSSQSIVHDNGNTYLEWYLQKPGQSPKLLIYKVSNRFSGVLDKFSGSGSGTDFTLKISRVEAEDLGIYYCFQGSHVPPTFGGGTKLEIK
modifications: heavy chain mAb HB14; light chain mAb HB14
[1]
  ELISA binding to purified EBV gp350/220: +
  ELISA binding strength to gp350, compared with m72A1 / parental antibody: equal to or greater than that of the positive control, m72A1
[2]
  neutralization of EBV in Raji cells (in words): failed to neutralize EBV infection

B2: HB1: murine anti-EBV gp350 mAb, IgG1 κ; heavy chain SEQ ID NO: 102, light chain SEQ ID NO: 103; neutralizing (antibody, V domains shown)
VH: PGLVAPSQSLSITCTVSGFLLTTYGVHWVRQPPGKGLEWLGVIWAGGSTNYNSALMSRLSINKDISKSQVFLKMNSLQTDDTAMYYCTRDRGYGYLYAMDYWGQGTSVTVSSAKTTPPSVYPLAPGSAAQTNSMVTLG
VL: KFMSTSVGDRVSVTCKASQNVGTNVAWYQQKPGQSPKALIYSTSSRYTGVPDRFAGSGSGTDYTLTISNVQSEDLAEYFCQQYNTYPYTFGGGTRLDIKRADAAPTV
modifications: heavy chain mAb HB1; light chain mAb HB1
notes: murine anti-EBV gp350 mAb, IgG1 κ; neutralizing
[1]
  ELISA binding to purified EBV gp350/220: +
[2]; protein G and size-exclusion chromatography-purified mAbs, 12.5-100 μg/ml
  blocking of EBV infection of Raji cells (in words): blocked EBV infection in a dose-dependent manner
[2]
  neutralization of EBV in Raji cells (in words): dose-dependent neutralization
[3]; biotinylated antibodies
  competitive binding versus m72A1 and h72A1 (in words): bound targets that overlapped with those of both m72A1 and h72A1
[3]; biotinylated m72A1 1 μg/ml, unlabeled mAbs 500-67.5 μg/ml
  antigen binding competition with biotinylated m72A1 (in words): Antigen binding competition was observed

B3: HB6: murine anti-EBV gp350 mAb, IgG1 κ; SEQ ID NO: 110 / 111 (antibody, V domains shown)
VH: PELRKPGETVKISCKASGYTFTDYSMHWVKQTPGKGLKWMGWINTRTGEPRYADDFKGRFAFSLETSASTAYLQINNLKNEDTATYFCAPYGYALDYWGQGTSVTVSSAKTTPPSVYPLAPGSAAQTNSMVTLG
VL: AILSASPGEKVTMTCRATSSVNYMHWYQQKPGSSPKPWIYATSNLASGVPARFSGSGSGTSYSLTISRVEAEDAATYYCQQWSSNPPTFGAGTKLELKRADAAPTV
modifications: heavy chain mAb HB6; light chain mAb HB6
[1]
  ELISA binding to purified EBV gp350/220: +
[2]
  neutralization of EBV in Raji cells (in words): failed to neutralize EBV infection

B4: HB8: murine anti-EBV gp350 mAb, IgG1 κ; SEQ ID NO: 114 / 115; HB18 has identical VH and VL (antibody, V domains shown)
VH: PELKKPGETVKISCKASGYSFTNYGMNWVKQAPGKGLKWMGWINTYTGEPTYADDFKGRFAFSLETSASTAFLQINNLKNEDTATYLCARYYYGSVYSAWFAYWGQGTLVTVSAAKTTPPSVYPLAPGSAAQTNSMVTLG
VL: LSLPVSLGDQASISCRSSQSIVHSNGNTYLEWYLQKAGQSPKLLIYKVSNRFSGVPDRFGGSGSGTDFTLKISRVEAEDLGVYYCFQGSHVPYTFGGGTKLEIKRADAAPTV
modifications: heavy chain mAb HB8; light chain mAb HB8
notes: murine anti-EBV gp350 mAb, IgG1 κ; HB18 has identical VH and VL
[1]
  ELISA binding to purified EBV gp350/220: +
[2]
  neutralization of EBV in Raji cells (in words): failed to neutralize EBV infection

B5: HB10: murine anti-EBV gp350 mAb, IgG1 κ; SEQ ID NO: 118 / 119; non-nAb (protein)
chain 1: LSLPVSLGDQASISCRSSQSIVHSNGNTYLEWYLQKAGQSPKLLIYKVSNRFSGVPDRFGGSGSGTDFTLKISRVEAEDLGVYYCFQGSHVPYTFGGGTKLEIKRADAAPTV
chain 2: SSLSASLGDRVTISCRASQDIGNYLNWYQQKPDGTVKLLIYYTSRLHSGVPSRFSGSGSGTDYSLTISNLEEEDIATYFCQQGNTLPPTFGGGTKLEIKRADAAPTV
modifications: heavy chain mAb HB10; light chain mAb HB10
notes: murine anti-EBV gp350 mAb, IgG1 κ; non-nAb
[1]
  ELISA binding to purified EBV gp350/220: +
[2]; protein G and size-exclusion chromatography-purified mAbs, highest concentration 100 μg/ml
  blocking of EBV infection of Raji cells (nAb activity): < 50%
[2]
  neutralization of EBV in Raji cells (in words): failed to neutralize EBV infection
[3]; unlabeled mAb 67.5 μg/ml, biotinylated m72A1 1 μg/ml
  % inhibition of biotinylated nAbs (biotinylated m72A1): 13%
[3]; unlabeled mAb 125 μg/ml, biotinylated m72A1 1 μg/ml
  % inhibition of biotinylated nAbs (biotinylated m72A1): 16%
[3]; unlabeled mAb 250 μg/ml, biotinylated m72A1 1 μg/ml
  % inhibition of biotinylated nAbs (biotinylated m72A1): 14%
[3]; unlabeled mAb 500 μg/ml, biotinylated m72A1 1 μg/ml
  % inhibition of biotinylated nAbs (biotinylated m72A1): 12%

B6: HB7: murine anti-EBV gp350 mAb, IgG1 κ; SEQ ID NO: 112 / 113 (antibody, V domains shown)
VH: AELVRPGASVKLSCKALGYTFTDYEMHWVKQTPVHGLEWIGTISPGRSGTAYNQKFKGKATLTADKSSRTAYMELNSLTSEDSAVYYCSRYGHPSYLDVWGAGTTVTVSSAKTTPPSVYPLAPGSAAQTNSMVTLG
VL: KFMSTSVGDRVNITCKASQSVGNAVAWFQQKPGQSPKLLIYSASNRYTGIPDRFTGSGSGTDFTLTCNNMQSEDLADYFCQQYSSYPLTFGAGTKLELKRADAAPTV
modifications: heavy chain mAb HB7; light chain mAb HB7
[1]
  ELISA binding to purified EBV gp350/220: +
  ELISA binding strength to gp350, compared with m72A1 / parental antibody: equal to or greater than that of the positive control, m72A1
[2]
  neutralization of EBV in Raji cells (in words): failed to neutralize EBV infection
